Test results from a protein production outcome set (Wang et al. 2014).

Experiment: label from the status in PepcDB records

Sequence | protein production
MFALCDVNAFYASCETVFRPDLWGKPVVVLSNNDGCVIARNAEAKALGVKMGDPWFKQKDLFRRCGVVCFSSNYELYADMSNRVMSTLEELSPRVEIYSIDEAFCDLTGVRNCRDLTDFGREIRATVLQRTHLTVGVGIAQTKTLAKLANHAAKKWQRQTGGVVDLSNLERQRKLMSALPVDDVWGIGRRISKKLDAMGIKTVLDLADTDIRFIRKHFNVVLERTVRELRGEPCLQLEEFAPTKQEIICSRSFGERITDYPSMRQAICSYAARAAEKLRSEHQYCRFISTFIKTSPFALNEPYYGNSASVKLLTPTQDSRDIINAATRSLDAIWQAGHRYQKAGVMLGDFFSQGVAQLNLFDDNAPRPGSEQLMTVMDTLNAKEGRGTLYFAGQGIQQQWQMKRAMLSPRYTTRSSDLLRVK | failed
MNNQEKNMLGFNQDEYLTSAREIIAARQKAEQVADEIYQAGFSSLFFASVGGSLAPMMAINEFAKELTTLPVYVEQAAELIHKGNKRLNKDSVVITLSKSGDTKESVAIAEWCKAQGIRVVAITKNADSPLAQAATWHIPMRHKNGVEYEYMLLYWLFFRVLSRNNEFASYDRFASQLEILPANLLKAKQKFDPQADAIASRYHNSDYMMWVGGAEMWGEVYLFSMCILEEMQWKRTRPVSSAEFFHGALELLEKDVPLILVKGEGKCRALDERVERFASKITDNLVVIDPKAYALDGIDDEFRWIMAPCVVSTLLVDRLAAHFEKYTGHSLDIRRYYRQFDY | not failed
MKLVVVSAGLSVPSSTRLLADRLAKATAARVPAEVEVVELRDLAVEIAHNFTNGFPGRALAAAIGAVTEADGLIVVTPVFSASYSGLFKSFFDVLEQGVLAGKPVLIAATGGSARHSLVLEHALRPLFAHLRAVVVPTGVYAASEDWGAEGLAERIERAAGELAGLMTGLMSGVSAVGPARDAQPRAGAEVSADGPAAAPAEGSVPRPRETVAQSATAGRGSRTDGFQVVPFEQQLAALRTR | failed
MSAQEPWTAATAKGTALKNTTLLKALTIGILSILALIPLGIIMDLTSDREMLYHSVVEEIGRSWGEQQTLSGPALVIPYRYFVMEEEVSNDGKTRREVKRTYQDELVILPKKLALDLDLKHDFRTRGIYQSLVYSAALKGQADFSLNSYDIPNLIALDNKNARLVFGVSSNQAIDKVEKIEIKGDSALLSGSLMSGTGLTTGGLEKGFNQGIQVSEASDFSVNFAMTLRGSQSISALPLGEQTLINIQADWPHPSFKGLLPAEREINAKGFTASWNISHLTRNYPQEFVKSNQSTLTEVVANAILFEPVTHYGKIDRSVKYGLLFIVLTFIMLFIFELGQKTSLSIVQYILVGSAMALFYLLLLSLSEHLAFLQAYLIAACIPVLSVSTYVGSATASLKRGVIVGTMLVSLYAVLYSILQLEDYALLMGTGLLVVVLLILMFVTRHQSKNTAQ | not failed
MAKHVIIGAGSIGTNVARLLAEGGESVRIVTRSGSGPEHPLVDRVAADASDPSRLTELSRGAGVIYHCANPPSYTVWERLLPPLQTAAITAAKANDAVLALTGSLYAYGPQPGGRMNEHTPMAATGHKGRLRRRMWEQALAGGIRTVEVRGSDYIGKDANGIYSLLIKSALQKGKAAWITGHLDMPHTFTFNGDMAQALITLASEERAWGRPWHVPSAPAVTIRELARRYAVAAGRPPIKLIQIPRSVTRTAGLIVPIAREMAEMDYQWYAPFHMDATETTETFGLTATDLDTAVRNEVG | failed
MVKHARVRAPELVGRGGWINTGDRELSLAALRGRIVVLDFWTFCCVNCLHALDELRELEERHRDTVVIVGVHSPKFTHEAEHRAVLDAVERYSVEHPVLDDPERVTWRQYAVRAWPTLAVIDPEGYVVAQYTGEGHAHAIQRLVEELEARHAAKGTLRRGDAPYVAPEPEPTTLRFPGKAVSLPSGTFLVSDTTRHQLVELAEDGESPVRRIGSGRRGFTDGPADRAEFSEPQGLALLGDGSVVVADTVNHALRRYEPVTGEVTTLAGTGRQHRPGEPSRGAARAVSLSSPWDVALWNDRVWIAMAGVHQLWAYDPRDGSVTVTAGTGNEGLVDGPGPEAWFAQPSGLSATDDRLWVADSETSALRWVELDGTVRTAVGTGLFDFGHRDGPAARALLQHPLGVAALPDGSVVVADTYNHALRRYAPPTGEVSTLATDLREPSDAVVVGGDVLVVESARHRLTRLRLPHDALGTGSGEAVLRGTTEAAPGTLRLEVAFRALAGQKLDQRYGPATRLLVSATPPELLRAGEGAGTELSRSLDLDPSVPEGMLHVSATAASCDDDLDVPYPACHVHQKDWKIPVRLVEGASDRLPLVLTGVDTA | failed
MESVSCSAAAVRTGDMESQRDLSLVPERLQRREQERQLEVERRKQKRQNQEVEKENSHFFVATFARERAAVEELLERAESVERLEEAASRLQGLQKLINDSVFFLAAYDLRQGQEALARLQAALAERRRGLQPKKRFAFKTRGKDAASSTKVDAAPGIPPAVESIQDSPLPKKAEGDLGPSWVCGFSNLESQVLEKRASELHQRDVLLTELSNCTVRLYGNPNTLRLTKAHSCKLLCGPVSTSVFLEDCSDCVLAVACQQLRIHSTKDTRIFLQVTSRAIVEDCSGIQFAPYTWSYPEIDKDFESSGLDRSKNNWNDVDDFNWLARDMASPNWSILPEEERNIQWD | not failed
MKKWRFLGIDDSFDDRKCCVVGCVTCGGYVEGFLYTEIDIDGLDATDKLISMVRRSKFREQIKCIFLPGITLGGFNLVDIQRVYRETKIPVVVVMRRKPDMEEFDSAMRNLENYELRRKIVEVAGEIHRIGDIYIQTAGLTPSEAEKLVKASLIKGNMPEPVRISHLVASAIIHGESR | not failed
MSRDRLYTWAGLWRSPSSSWEALRLEDDQAESQLRAPDERSGLPYQLDYRLRWDADWHLREAVFHVESETGVRKLHLLADGRGHWQDGDGEALPAFDGCLDIDIWPSPFTNTFPIRRLGLADGQRAEIRALYIEAPALEPRSMRQAYTRLDASHYLYENLEGSAFKAVLLVDEQGLVIDYPGLFQRL | not failed
MIIIMAGGKSSRMGREKPVLKIAGKEMLLWVYEQAEAVGEVLVALSRHTPRTRELCLREGIEFVDTPGRGYVKDVQWLLREFGPFISLSSDIPFVKSSDIYSLLKEFDGKVSLTGVLPLEVVPKDLTPYSYMGYAIVGINGVAKEGEKFFVFSNPLLALNVNTPRELELAKRVAEIIRVRGIRLEHHHHHH | not failed
MGWLFLLLAVASEAFSHVALKATDGLSHLIPNVIVITGHLGAFYFLSQAMKTLPVGIAHASWAGLAIIAVTLISSAFYHQHLDNKIWLGIGFISIGIAIINLSSTPHVH | failed
MLTFAPLNFLAIGVGATLGAWLRWVPGLRLNGAGWPWGTLTANLVGGYLIGVMVALIASHPEWPAWIRLAAVTGFLGGLTTFSTFSAETVDMLERGVYATAAAYAGASLAGSLAMTGLATVRLLLR | failed
FHWVNDGYADFDGFLAALSSRKRKAIRKERAQAQGFGGQIRELTGGDLRPEHWDAFWRFYQDTGARKWGSPYLTRAFFDIAHQTMADDMVLVLAERDGIPVAGALNFIGREALFGRYWGCVEHHPCLHFELCYYRAIDWAIAHGLARVEAGAQGEHKLARG | not failed
MFSFFSRWYQERFSDPQAVTLLAILVGLALVLYFAGGLLAPLLVALVLAFLLEWPVAQMLKLGINRTTAASLVLIIFLGIVVLLTFGLIPSVWRQGVSLMTDLPSMIDKGLQTVQGLATQYPQFISVEQLNLMVAELKKLLDTQHVLDIAKQLIGYSASLLVLMVYAILVPLLVFFFLKDKDQLISGSKRFFPTNRQLARKVWFEMHQQIFNYIRGKVIEIVIVGVASYILFAFMGLSYSALLGVLTGLSVLIPYVGATLVTLPIMLVAFFQWGFSSEFGYLMLGYGIIQALDGNVLVPILFSDAVDLHPVIIIAAVLVFGGLWGVLGVFFAIPLASLVKAVINAWPKTEIEPSASAPPQK | failed
MLLSIITVAFRNLEGIVKTHASLAHLAQVEDISFEWIVVDGGSNDGTREYLENLNGIFNLRFVSEPDNGIYDAMNKGIAMAQGKFALFLNSGDIFHQNAANFVRKLKMQKDNVMITGDALLDFGDGHKIKRSAKPGWYIYHSLPASHQAIFFPVSGLKKWRYDLEYKVSSDYALAAKMYKAGYAFKKLNGLVSEFSMGGVSTTNNMELCADAKKVQRQILHVPGFWAELSWHLRQRTTSKTKALYNKV | failed
MKRKKPTIHDVAAKAGVGLGTVSRVLNDHPAVRHETRARVLRAMEELGYAPNPHARRIAGGRSYTVSVLLPFVATEFYRRLVEGIEGVLLEQRYDLALFPILSLARLKRYLENTTLAYLTDGLILASYDLTERFEEGRLPTERPVVLVDAQNPRYDSVYLDNRLGGRLAGAYLARFPGPIFAIAVEEEPDRAFRRTVFAERMAGFQEALKEAGRPFSPDRLYITRHSQEGGRLALRHFLEKASPPLNVFAGADQV | not failed
MSLAARLIRSSRSNTFGIITDYVSTTPYSVDIVRGIQDWANANGKTILIANTGGSSEREVEIWKMFQSHRIDGVLYVTMYRRIVDPESGDVSIPTVMINCRPQTRELLPSIEPDDYQGARDLTRYLLERGHRRIGYIRLNPILLGAELRLDAFRRTTSEFGLTENDLSISLGMDGPVGAENNYVFAAATEMLKQDDRPTAIMSGNDEMAIQIYIAAMALGLRIPQDVSIVGFDDFRTVTMALKPELTTAALPYYDLGREGAKWLNDLIAGEKIYPGSRVVSCKLVERSSAAFGEGHHHHHH | not failed
PCYDNTFANTCAECQQLIGHDSRELFYEDRHFHEGCFRCCRCQRSLADEPFTCQDSELLCNDCYCSAFS | not failed
MATVIAKPEAIAPEPKRRFTWPRGSRLGRLIVVLNVVALAIVIVGALILNELRNGLVNARIDSLSTQGELIANVIDQSATVGEPEPALDPYTASQIFQLLFIPRSQRARLFDAQGKALADSFVVADRVDWKVLPPARKPDQKDDDARTTPDRAAKAKRAQEALANEIAQAMRGRTVAGTRIAENGERVVSVSIPIQHVKAVLGVLTLEASDVDEIIAAQRKALLPFIAVAMLAILTSSVLLHRLIAVPVLRLARAADHVRLQGARAISLPDLSERKDELGDLSRSLEDMTHSLSERMDAIERFAADVAHEIKNPLTSIRSAIETLDLVTEPAARARLLAILQNDVNRLDRLVTDISNASRLDAELSREHPKALDLGRLLTEVVSLYENQWRPGDAPGSVRVSLSLADPSQPAIILGRETPIGQVFRNLIDNARSFSPADGEVRVTLSRTRGGLIAAVEDDGPGMPPENLETIFERFYTSRPKGRAFGGNSGLGLSIARQIVETHGGTVHAENRKDANGAVVGARFVVELPDARE | failed
MKAVRVHILGSGGREHAIGWAFAKQGYEVHFYPGNAGTKRDGTNHPYEGEKTLKAIPEEDIVIPGSEEFLVEGVSNWRSNVFGPVKEVARLEGSKVYAKRFMKKYGIRTARFEVAETPEELREKIKKFSPPYVIKADGLARGKGVLILDSKEETIEKGSKLIIGELIKGVKGPVVIDEFLAGNELSAMAVVNGRNFVILPFVRDYKRLMDGDRGPNTGGMGSWGPVEIPSDTIKKIEELFDKTLWGVEKEGYAYRGFLYLGLMLHDGDPYILEYNVRLGDPETEVIVTLNPEGFVNAVLEGYRGGKMEPVEPRGFAVDVVLAARGYPDAPEKGKEITLPEEGLIFFAGVAEKDGKLVTNGGRVLHCMGTGETKEEARRKAYELAEKVHFEGKTYRRDIAL | not failed
MTASTALTVAIWIGVMLIGGIGSVLRFLVDRSVARRLARTFPYGTLTVNITGAALLGFLAGLALPKDAALLAGTGFVGAYTTFSTWMLETQRLGEDRQMVSALANIVVSVVLGLAAALLGQWIAQI | failed
MTSVESTAHIEKRFIELKNIWFIIASLCYVAAIGFIIAYFVGGYSPYISIAVMWGCIGSLDMILGILRRKKEK | failed
MTPTPLHSITPFSMLDFPSMLSCILWFSGCNLACSYCYNPEFLKESGKIDLEGLLSFLRSRVGLLEGVVFSGGEATLFAGLPLWMEEVRSLGFKIKLDTNGTNPAMLKELLQKGYLDYVAMDFKGKEERFGMITGREFYGRFLESLEILLSSSIPFEIRTTVHSYLLQEEDIAEMAALLKERGYKGAFYLQHFVGEKETLKPLPESRRLKLDEEAIETKIIWR | failed
